Test results as given in patent US12138308B2, “Polymer composite for helicobacter pylori recognition and composition for photodynamic therapy comprising same” (eNBiaR Inc., priority 2018, dated 2024).

What was measured:
[1] = system: Helicobacter pylori (26695 strain); test: Inhibition zone analysis of photodynamic antibacterial effect by laser intensity; format: cell-based; details: 50.0 μg/ml based on Pheoa
[2] = system: Helicobacter pylori (SS1 strain); test: Antibacterial activity in vitro by concentration, CFU assay, laser 10.0 J/cm^2; format: cell-based; details: for concentration at which colonies hardly appear / did not appear / Helicobacter pylori no longer grows / concentration from which the number of Helicobacter pylori colonies decreases: concentration based on the photosensitizer; for concentration at which colonies hardly appear / did not appear / Helicobacter pylori no longer grows / concentration from which the number of Helicobacter pylori colonies decreases / colony result value compared to the NC group at 50.0 μg/ml: laser 10.0 J/cm^2; for colony result value compared to the NC group at 50.0 μg/ml: 50.0 μg/ml free photosensitizer
[3] = system: Helicobacter pylori SS1 strain; test: Confocal microscopy: interaction with and inactivation of Helicobacter pylori SS1 strain; format: cell-based
From the text: (§1) Then, it was redispersed with D.W and the above process was repeated twice.
as §1

AGS cells [4] = system: AGS cells
Procedure: AGS cells were dispensed into each well by 1 ml at a concentration of 2×10^4 cells/well in a 24-well plate and cultured at 37° C. and 5% CO2 for 24 hours.
After the reaction, the laser was irradiated in the range of 0-4.0 J/cm^2 using a laser of 50 mW intensity, and the MTT assay was performed to calculate the cell viability compared with the control.

AGS cells [5] = test: Cellular uptake in AGS cells (pheophorbide a fluorescence intensity); format: cell-based, human; details: 30 minutes at 36° C., equal concentration based on pheophorbide a
Procedure: After incubation, it was washed twice with DPBS, treated with trypsin and cells were collected and centrifuged (1500 rpm, 3 minutes) to remove the supernatant.

Q: “3′-Sialyllactose-PEG-Pheophorbide a [3SL-PEG-Pheoa]” was tested. Which “inhibition zone at laser intensities of 30, 40, and 50 J/cm^2” value ([1]; 100 mW laser) did it give?
A: Its value is “inhibition zone was also identified”.

Q: And the “inhibition zone at 10.0 J/cm^2 laser” value ([1]; 100 mW laser, read two days later)?
A: Its value is “inhibition zone in which Helicobacter pylori does not grow was confirmed”.

Q: And the “inhibition zone without laser irradiation” value ([1]; comparative group, laser not irradiated)?
A: Its value is “no inhibition zone was found”.

Q: How did the “number of Helicobacter pylori colonies at 20.0 μg/ml” value ([2]; 20.0 μg/ml based on Pheoa, laser 10.0 J/cm^2, decreased from 1×10^5 CFU/ml) turn out when “3′-Sialyllactose-Pullulan-Pheophorbide a [Example 3SL-PU-Pheoa]” was run?
A: The value was 5×10^3 CFU/ml.

Q: What about the “concentration at which colonies hardly appear / did not appear / Helicobacter pylori no longer grows” value [2] of the same substance?
A: The value was no less than 50000 ng/mL.

Q: Which “concentration at which colonies hardly appear / did not appear / Helicobacter pylori no longer grows” value [2] does the source give for “3′-sialyllactose-chitosan-pheophorbide a [3SL-Chitosan-Pheoa]” here?
A: The value was 25000 ng/mL.

Q: What about the “concentration from which the number of Helicobacter pylori colonies decreases” value [2] of the same substance?
A: The value was 10000 ng/mL.

Q: What does the source list for butyl-poly(3SL-lysine)10-Ce6?
A: concentration at which colonies hardly appear / did not appear / Helicobacter pylori no longer grows [2]: 1000 ng/mL; concentration from which the number of Helicobacter pylori colonies decreases [2]: 500 ng/mL

Q: How did the “number of Helicobacter pylori colonies at 10.0 μg/ml” value ([2]; 10.0 μg/ml based on HPP, laser 10.0 J/cm^2, decreased from 1×10^5 CFU/ml) turn out when butyl-poly(3SL-lysine)10-HPP was run?
A: Its value is 3×10^3 CFU/ml.

Q: And the “concentration at which colonies hardly appear / did not appear / Helicobacter pylori no longer grows” value [2]?
A: Its value is no less than 25000 ng/mL.

Q: Which “concentration at which colonies hardly appear / did not appear / Helicobacter pylori no longer grows” value [2] does the source give for butyl-poly(3SL-lysine)10-PPIX here?
A: The value was 10000 ng/mL.

Q: What about the “concentration from which the number of Helicobacter pylori colonies decreases” value [2] of the same substance?
A: Its value is 5000 ng/mL.

Q: How did the “number of Helicobacter pylori colonies at 25.0 μg/ml” value ([2]; 25.0 μg/ml based on SSiPC, laser 10.0 J/cm^2, decreased from 1×10^5 CFU/ml) turn out when butyl-poly(3SL-lysine)10-SSiPC was run?
A: The value was 4×10^3 CFU/ml.

Q: What about the “concentration at which colonies hardly appear / did not appear / Helicobacter pylori no longer grows” value [2] of the same substance?
A: Its value is 50000 ng/mL.

Q: For butyl-poly(6SL-lysine)10-Pheoa, which “interaction with Helicobacter pylori (Cy5 fluorescence of pheophorbide a coinciding with SYTO 9)” value ([3]; SS1 strain 1×10^6 CFU/ml, 1 μg/ml based on pheophorbide a, 37° C., 2 hours) is on record?
A: The value was “fluorescence of Cy5 (purple) of pheophorbide a of HSP did not appear”.

Q: What about the “inactivation: propidium iodide (Red) fluorescence, cell membrane damage” value ([3]; SS1 strain, total 10 J/cm^2, 50 mW, Laser (+) for 3SL-LRHSP, Laser(+) and Laser(−) for the controls) of the same substance?
A: The value was “propidium iodide (Red) fluorescence was not confirmed”.

Q: For chlorin e6 [Ce6, reference compound], which “colony result value compared to the NC group at 50.0 μg/ml” value [2] is on record?
A: The value was “more than half”.

Q: For pheophorbide a [reference compound], which “laser irradiation dose from which cytotoxicity appeared” value (AGS cells [4]) is on record?
A: The value was 0.8 J/cm^2.

Q: What about the “cellular uptake: pheophorbide a fluorescence intensity compared with the control” value (AGS cells [5]) of the same substance?
A: The value was 7×10^2.

Q: And the “number of Helicobacter pylori colonies at 50.0 μg/ml” value ([2]; 50.0 μg/ml based on Pheoa, same amount of laser (10.0 J/cm^2))?
A: Its value is 9×10^2 CFU/ml.

Q: And the “colony result value compared to the NC group at 50.0 μg/ml” value [2]?
A: Its value is “slightly less than half”.

Q: With “succinylated silicon phthalocyanine [SSiPC, reference compound]” as the substance, how does the “colony result value compared to the NC group at 50.0 μg/ml” value [2] read?
A: Its value is “more than half”.
